Laboratory results from the RNAGym collection of RNA variant scans (doi:10.1073/pnas.2313332121).

B1: TPR t1 (parent)
chain: GACCAAUCUGCCCUCAGAGCUCGAGAACAUCUUCGGAUGCAGAGGAGGCAGGCUUCGGUGGCGCGAUAGCGCCAACGUCCUCAACCUCCAAUGCAUCCCACCACAUGAUGAUGCCUGAAGAGCCUUGGUUUUUUG

Variants of: B1
Assay: polymerase ribozyme fitness, log enrichment relative to wild type (log ratio); higher = more active; in vitro selection for triplet polymerase activity
How it was run: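 Both subunits of a heterodimeric triplet polymerase ribozyme were given their own mutant library, built by PCR and transcribed. Each library was annealed with a biotinylated primer, the partner subunit and triplets, incubated frozen at −7 °C, and its extended constructs gel-excised, captured on streptavidin beads and amplified by RT-PCR, all in one round done in triplicate. Fitness is the logarithm of genotype enrichment relative to wild-type enrichment, with replicates averaged by inverse-variance weighting. That logarithm is base 2, and Illumina-sequenced genotypes needed ≥10 input reads and ≥1 read per output.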

In order of rising “polymerase ribozyme fitness (log ratio)” value:
1. C56U C64A C115U  -7.12
2. C56A U112A C114A U116G  -6.59
3. C56A C79U U109A C123G  -6.51
4. G57A C98G U112A  -6.12
5. C56A U109A  -5.84
6. C56A C98A  -5.59
7. C56U G61U C104U U112G G117U C124U  -5.56
8. C56U G69A G113A  -5.38
9. C56G G61U U106A C115U  -5.22
10. C56A G63U  -4.97
11. C56A C85G U92C  -4.74
12. C56A G117A U125G G128C  -4.73
13. C56G G65A  -4.66
14. C56A U109G  -4.29
15. C56U U78C A111C G113U  -4.24
16. C56G C89G G122A U129A  -4.09
17. C56U G57U A90C G110U  -3.95
18. C56U C70A  -3.82
19. C56G G110C  -3.6
20. C56U U106G U116C  -3.48
21. C56A U81A C102A  -3.37
22. C56A U116A  -3.29
23. C56G U78A U116G  -3.2
24. C56A C73U C88U U126G  -3.16
25. C56A U109C  -3.16
26. C56A C80G  -2.82
27. C56U G113U  -2.72
28. C56U C79U G113C  -2.44
29. C56U C101G A118C C124G  -2.41
30. C56G G61U  -2.32
31. C56G G61A  -2.31
32. C56A G63A  -2.26
33. C56A C114U  -2.03
34. C56U G113C  -1.97
35. C56U C73U C88G  -1.95
36. C56A C98U  -1.91
37. C56U A95C C98U  -1.83
38. C56A C114A  -1.74
39. C56U C72A G122A  -1.69
40. C56A C102U  -1.54
41. C56U C72U G120C G127A U134C  -1.5
42. C56G A74G  -1.5
43. C56A U125G  -1.39
44. C56U G77A G117U G120A C124A  -1.34
45. G57A G60U C88U C94U  -1.24
46. C56A C80U  -1.23
47. C56A C82U C104U G122A U125A  -1.2
48. C56U A91C  -1.17
49. C56A C79U U87A  -0.983
50. C56A C101U U106C A111C  -0.932
51. C56U C79A  -0.918
52. C56U U106G U112G A118C U133G  -0.872
53. C56U A119U  -0.819
54. C56A U116C  -0.712
55. C56A C73A  -0.651
56. C56U U116C  -0.494
57. G57A G58A  -0.357
58. C56G U87G  -0.352
59. C56U U78A  -0.32
60. G57A G58A A83U  -0.302
61. C56A G77U  -0.278
62. C56U U132C  -0.156
63. C56A G77C  -0.0761
64. C56A C72U C104A C124U  -0.00796
65. C56U C62U C123A  0.0354
66. C56U U106C G120A  0.203
67. C56U U112C  0.364
68. C56G C101U U130C  0.475
69. C56A C73U  0.483
70. C56G C124G  0.656
71. C56U G120A  0.719
72. C56U G120U  0.743
73. G57A A119G  0.755
74. C56U G120C  0.793
75. C56G C85U A121U  0.921
76. C56G A90C A121G  1.01
77. C56A C124A  1.04
78. C56A C123U  1.2
79. C56U U112C A118C  1.53
80. C56U U112A  1.66
81. C56U A121C  1.68
82. C56G C124A  1.73
83. C56U U87A C123G  1.81
84. C56U A121G  1.94
